Measurements taken from patent publication US20030143656A1 (published 2003).
Several values for one entry are separate records, joined by “and”; a condition that tells them apart may be missing. Identical values can stand only once. Where no end group is shown, it is not given here. The star is where a group is joined. Biotin = O=C1N[C@H]2[C@H](CS[C@H]2CCCCC(=O)*)N1

Key:
GST-PDK1 L155S = molecular target: T1, GST-PDK1 L155S (human, UniProt O15530 1-556); assay: SPR over immobilised biotinylated PIFtide
T1 construct: range 1-556; not shown: N-terminal GST tag, pEBG2T vector
T1 sequence (looked up): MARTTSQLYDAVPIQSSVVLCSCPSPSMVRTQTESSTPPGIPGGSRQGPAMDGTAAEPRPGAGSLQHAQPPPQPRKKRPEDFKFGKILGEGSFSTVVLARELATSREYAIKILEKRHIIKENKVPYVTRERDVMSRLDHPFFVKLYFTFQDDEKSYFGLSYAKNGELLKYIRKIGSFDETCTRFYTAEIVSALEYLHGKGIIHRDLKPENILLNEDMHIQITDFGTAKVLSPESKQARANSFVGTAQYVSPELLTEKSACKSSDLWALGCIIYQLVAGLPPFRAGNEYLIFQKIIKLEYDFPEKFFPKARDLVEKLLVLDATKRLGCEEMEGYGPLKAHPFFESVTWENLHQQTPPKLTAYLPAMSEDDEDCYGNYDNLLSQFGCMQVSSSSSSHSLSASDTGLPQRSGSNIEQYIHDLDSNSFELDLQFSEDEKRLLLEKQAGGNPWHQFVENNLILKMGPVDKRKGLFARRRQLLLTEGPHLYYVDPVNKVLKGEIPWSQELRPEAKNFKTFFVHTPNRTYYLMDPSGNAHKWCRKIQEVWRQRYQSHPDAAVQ
Description: (§1) Duplicates of each condition are shown. Similar results were obtained in 3 to 5 separate experiments. (D) Surface Plasmon Resonance measurements were carried out in a BiaCore instrument as described in the Methods to measure the interaction of wild type and mutant GST-PDK1 preparations with the 24 residue synthetic peptide whose sequence encompasses the PDK1 binding site on PIF termed PIFtide [24: Example 2]. PIFtide was immobilised on a SA SensorChip and wild type (wt) or the indicated mutants of PDK1 were injected at a concentration of 40 nM. All data are single determinations from a representative experiment that was repeated at least 3 times with similar results. For clarity, the bulk, refractive index changes associated with the beginning and end 10 seconds of the injection have been removed.
(§2) Binding was analysed directly by surface plasmon resonance in an upgraded Bia-Lite™ system. PIFtide (comprising the last 24 residues of PRK2) was biotinylated though its C-terminal Cys and bound to an streptavidin-coated Sensor/Chip SA, as described previously. Wild type or mutant preparations of GST-PDK1 (10-400 nM) were injected in an intracellular type buffer, over the immobilised biotinylated PIFtide at a flow rate of 30 μl per min as described previously (James et al (1996) Biochem J 315, 709-713). Alternatively, the wild type or mutant preparations of GST-PDK1 (1 μM) were incubated with PIFtide or D978A-PIFtide (0.10 μM) and the mixture injected over the immobilised peptides. The decrease is steady state binding between wild type and mutant GST-PDK1 and peptide was used to determine the Kd of interaction between PDK1 and the peptide. The decrease in the maximal response at different concentrations of peptide was used to evaluate the relative affinities of both peptides for PDK1. The sensor chip surface was regenerated by pulses of 10 mM NaOH. […]

GST-PDK1 L155D = molecular target: T2, GST-PDK1 L155D (human, UniProt O15530 1-556); assay: SPR over immobilised biotinylated PIFtide
T2 construct: range 1-556; also called L155D mutant of GST-PDK1; not shown: N-terminal GST tag, pEBG2T vector
T2 sequence (looked up): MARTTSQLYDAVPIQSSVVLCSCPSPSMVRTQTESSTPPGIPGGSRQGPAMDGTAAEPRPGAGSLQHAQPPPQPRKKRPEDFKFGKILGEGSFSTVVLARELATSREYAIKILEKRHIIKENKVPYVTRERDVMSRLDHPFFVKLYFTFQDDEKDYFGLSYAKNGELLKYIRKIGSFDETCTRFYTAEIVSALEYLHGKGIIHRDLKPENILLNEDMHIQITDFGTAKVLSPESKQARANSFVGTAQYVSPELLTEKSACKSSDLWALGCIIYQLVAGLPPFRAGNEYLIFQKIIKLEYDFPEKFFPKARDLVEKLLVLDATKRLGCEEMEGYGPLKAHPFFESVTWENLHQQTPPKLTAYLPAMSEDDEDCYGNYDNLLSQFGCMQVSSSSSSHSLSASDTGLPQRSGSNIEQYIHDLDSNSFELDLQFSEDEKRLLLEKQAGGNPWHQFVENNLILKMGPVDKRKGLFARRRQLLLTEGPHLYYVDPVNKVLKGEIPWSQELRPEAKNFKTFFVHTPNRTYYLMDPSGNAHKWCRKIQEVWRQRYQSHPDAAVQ
Description: as §1, §2

GST-PDK1 L155E = molecular target: T3, GST-PDK1 L155E (human, UniProt O15530 1-556); assay: SPR over immobilised biotinylated PIFtide
T3 construct: range 1-556; not shown: N-terminal GST tag, pEBG2T vector
T3 sequence (looked up): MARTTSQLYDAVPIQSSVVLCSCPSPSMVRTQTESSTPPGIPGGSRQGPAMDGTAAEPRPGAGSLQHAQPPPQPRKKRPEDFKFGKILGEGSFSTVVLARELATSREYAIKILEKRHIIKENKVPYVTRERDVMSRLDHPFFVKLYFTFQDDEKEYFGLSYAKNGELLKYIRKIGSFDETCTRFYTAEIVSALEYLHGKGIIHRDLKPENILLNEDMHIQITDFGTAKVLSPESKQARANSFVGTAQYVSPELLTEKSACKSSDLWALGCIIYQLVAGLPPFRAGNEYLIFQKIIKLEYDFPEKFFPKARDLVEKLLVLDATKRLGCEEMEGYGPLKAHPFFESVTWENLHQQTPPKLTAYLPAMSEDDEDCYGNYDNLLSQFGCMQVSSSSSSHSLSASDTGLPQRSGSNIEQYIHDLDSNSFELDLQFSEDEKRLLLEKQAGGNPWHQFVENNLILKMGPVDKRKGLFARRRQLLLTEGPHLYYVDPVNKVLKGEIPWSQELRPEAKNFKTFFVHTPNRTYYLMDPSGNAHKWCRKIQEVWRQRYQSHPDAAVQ
Description: as §1, §2

His-PDK1 = molecular target: T4, His-PDK1 (human, UniProt O15530 52-556); assay: SPR, immobilised biotinylated 24 residue peptide
T4 construct: range 52-556; Expressed in Sf9 cells; also called His-tagged PDK1; PDK1 (residues 52-556) with a hexahistidine tag; not shown: N-terminal hexahistidine (His) tag
T4 sequence (looked up): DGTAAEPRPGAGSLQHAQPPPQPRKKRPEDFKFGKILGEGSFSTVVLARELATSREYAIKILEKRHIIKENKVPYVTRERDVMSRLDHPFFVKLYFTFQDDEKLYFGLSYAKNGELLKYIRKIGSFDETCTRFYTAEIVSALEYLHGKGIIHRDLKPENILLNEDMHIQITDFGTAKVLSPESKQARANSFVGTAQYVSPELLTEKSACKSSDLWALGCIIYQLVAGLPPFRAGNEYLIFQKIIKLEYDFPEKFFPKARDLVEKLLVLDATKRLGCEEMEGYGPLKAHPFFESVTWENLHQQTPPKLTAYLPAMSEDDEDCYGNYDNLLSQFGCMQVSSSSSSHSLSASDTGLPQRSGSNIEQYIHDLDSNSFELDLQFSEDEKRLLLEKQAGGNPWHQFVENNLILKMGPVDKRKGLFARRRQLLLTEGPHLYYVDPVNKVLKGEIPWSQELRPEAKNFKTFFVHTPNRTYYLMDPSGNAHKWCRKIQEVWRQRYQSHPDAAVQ

B1: biotinylated PIFtide, immobilised (peptide)
peptide: REPRILSEEEQEMFRDFDYIADWC(Biotin)
notes: also called immobilised, biotinylated synthetic peptide termed PIFtide; immobilised and biotinylated 24 residue synthetic peptide
Q: Does B1 bind (GST-PDK1 L155S)?
A: Result: no binding (tested: injected at 40 nM)

Q: Does B1 bind (GST-PDK1 L155D)?
A: Result: no binding (tested: injected at 40 nM)

Q: Does B1 bind (GST-PDK1 L155E)?
A: Result: no binding (tested: injected at 40 nM)

Q: What about the Kd (His-PDK1) of the same binder?
A: The Kd was 0.8 µM and 1.5 µM.
